{
  "source": "patent US20090191235A1",
  "key": {"[1]": {"target": "CD4 as used in isothermal titration calorimetry (UniProt P01730)", "assay": "ITC, drawn table of thermodynamic values of CD4-gp120 binding"}, "2-domain CD4 [2]": {"target": "2-domain CD4 (UniProt P01730)", "assay": "ITC, titration of HXBc2 core with sCD4(D1D2) at 37°C, value in the box beside the curve"}, "17b antibody": {"target": "17b antibody", "assay": "SPR (Biacore); 17b on-rate with CD4 over without CD4"}, "2-domain CD4 [3]": {"target": "2-domain CD4 (UniProt P01730)", "assay": "ITC, titration of HXBc2 core with sCD4(D1D2) at 37°C, stoichiometry marked at molar ratio 1.0 (CD4/core gp120)"}, "2-domain CD4 [4]": {"target": "2-domain CD4 (UniProt P01730)", "assay": "SPR (Biacore), 2-domain CD4 immobilised, gp120 analyte"}, "[5]": {"target": "CD4 as used in isothermal titration calorimetry (UniProt P01730)", "assay": "ITC, drawn table of thermodynamic values, column 'Kd (nM) to sCD4'"}},
  "data": [
    {"substance": "gp120 HXBc2 core, wild type (from UniProt P04578 83-492)", "values": [
      {"measurement": "-TΔS", "setting": "[1]", "result": 40, "unit": "kcal/mol"},
      {"measurement": "ΔH", "setting": "[1]", "result": -49.7, "unit": "kcal/mol"},
      {"measurement": "-TΔS", "setting": "2-domain CD4 [2]", "result": 40, "unit": "kcal/mol"},
      {"measurement": "Kd", "setting": "2-domain CD4 [2]", "result": 117, "unit": "nM"},
      {"measurement": "ΔH", "setting": "2-domain CD4 [2]", "result": -49, "unit": "kcal/mol"},
      {"measurement": "CD4 Induction", "setting": "17b antibody", "result": 79.9},
      {"measurement": "n", "setting": "2-domain CD4 [3]", "result": 1},
      {"measurement": "Kd", "setting": "2-domain CD4 [4]", "result": 29.5, "unit": "nM"},
      {"measurement": "Kd", "setting": "[5]", "result": 87, "unit": "nM"}
    ]}
  ]
}
